Here are results for 2 molecules from patent publication US20040185507A1.

In assay [1] the target is αvβ3 integrin on human cells (human) (UniProt P06756). As to the kind of experiment: 125-I antibody saturation binding on M21 cells (n = 3).
For assay [2] the target is unchanged. As to the kind of experiment: 125-I antibody saturation binding on M21 cells (n = 7).
In assay [3] the target is human αVβ3 integrin, purified (human) (UniProt P06756). The experiment in a line: ELISA saturation binding on alphaVbeta3 coated plate, non-linear regression (n = 6).
Sequence of human αVβ3 integrin, purified (human) (P06756 31-1048, form in doubt, chain 1 of 2): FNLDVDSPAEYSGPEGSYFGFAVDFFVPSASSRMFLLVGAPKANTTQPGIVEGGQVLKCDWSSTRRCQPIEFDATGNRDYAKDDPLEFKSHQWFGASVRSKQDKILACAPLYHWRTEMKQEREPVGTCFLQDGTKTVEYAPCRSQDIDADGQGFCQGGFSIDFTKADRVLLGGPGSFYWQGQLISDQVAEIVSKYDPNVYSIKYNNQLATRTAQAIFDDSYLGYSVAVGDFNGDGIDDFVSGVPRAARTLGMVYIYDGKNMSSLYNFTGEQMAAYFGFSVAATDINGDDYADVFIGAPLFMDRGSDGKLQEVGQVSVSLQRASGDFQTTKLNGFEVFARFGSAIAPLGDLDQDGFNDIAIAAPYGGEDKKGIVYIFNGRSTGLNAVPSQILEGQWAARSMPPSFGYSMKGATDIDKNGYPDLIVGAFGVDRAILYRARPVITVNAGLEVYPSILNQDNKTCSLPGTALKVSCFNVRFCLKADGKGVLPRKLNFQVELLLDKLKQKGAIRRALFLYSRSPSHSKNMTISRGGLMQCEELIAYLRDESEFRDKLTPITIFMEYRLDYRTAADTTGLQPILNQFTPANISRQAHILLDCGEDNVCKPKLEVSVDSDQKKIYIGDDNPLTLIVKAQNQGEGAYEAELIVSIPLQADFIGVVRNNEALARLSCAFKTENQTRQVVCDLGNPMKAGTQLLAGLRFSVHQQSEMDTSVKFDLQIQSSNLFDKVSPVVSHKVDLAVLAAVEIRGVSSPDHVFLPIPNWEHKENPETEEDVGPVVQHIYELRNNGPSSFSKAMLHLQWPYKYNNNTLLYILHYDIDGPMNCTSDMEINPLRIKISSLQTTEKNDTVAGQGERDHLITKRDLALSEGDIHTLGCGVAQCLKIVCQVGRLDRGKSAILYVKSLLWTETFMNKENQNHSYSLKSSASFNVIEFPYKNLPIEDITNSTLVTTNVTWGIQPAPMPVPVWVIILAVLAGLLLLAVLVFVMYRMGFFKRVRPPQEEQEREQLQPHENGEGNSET
Sequence of human αVβ3 integrin, purified (human) (P05106 27-788, form in doubt, chain 2 of 2, further chain): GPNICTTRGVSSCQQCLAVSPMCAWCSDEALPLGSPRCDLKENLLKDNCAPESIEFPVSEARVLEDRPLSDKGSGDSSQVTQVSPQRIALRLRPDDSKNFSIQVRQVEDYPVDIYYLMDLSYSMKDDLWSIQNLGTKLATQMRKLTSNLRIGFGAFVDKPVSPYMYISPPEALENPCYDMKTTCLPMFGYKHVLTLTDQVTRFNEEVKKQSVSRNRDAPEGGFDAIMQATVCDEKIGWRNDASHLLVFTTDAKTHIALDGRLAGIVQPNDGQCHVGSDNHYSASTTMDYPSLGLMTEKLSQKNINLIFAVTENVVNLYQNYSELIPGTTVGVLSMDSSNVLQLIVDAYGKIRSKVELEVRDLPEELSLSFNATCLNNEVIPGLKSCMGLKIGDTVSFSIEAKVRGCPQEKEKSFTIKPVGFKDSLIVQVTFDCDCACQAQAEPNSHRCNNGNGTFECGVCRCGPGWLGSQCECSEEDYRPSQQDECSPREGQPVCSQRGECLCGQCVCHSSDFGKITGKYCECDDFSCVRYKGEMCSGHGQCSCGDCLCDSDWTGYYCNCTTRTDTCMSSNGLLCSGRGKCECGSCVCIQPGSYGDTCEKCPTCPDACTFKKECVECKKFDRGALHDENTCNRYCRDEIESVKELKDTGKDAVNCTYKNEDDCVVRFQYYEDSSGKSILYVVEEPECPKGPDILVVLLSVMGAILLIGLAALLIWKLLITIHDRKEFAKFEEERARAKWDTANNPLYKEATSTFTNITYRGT
For assay [4], the target named is αvβ3 integrin on human cells (human) (UniProt P06756). As to the kind of experiment: cell-based or functional assay.
Assay [5] has the same target. As to the kind of experiment: 125-I antibody saturation binding on A375S2 cells (n = 3).
Assay [6] shares this target. As to the kind of experiment: 125-I antibody saturation binding on A375S2 cells (n = 6).
Assay [7] addresses human αVβ3 integrin, purified (human) (UniProt P06756). As to the kind of experiment: ELISA on αVβ3 coated plates.

Sequence of αvβ3 integrin on human cells (human) (P06756 31-1048, chain 1 of 2): as the sequence (P06756 31-1048, form in doubt, chain 1 of 2) above
Sequence of αvβ3 integrin on human cells (human) (P05106 27-788, chain 2 of 2, further chain): as the sequence (P05106 27-788, form in doubt, chain 2 of 2, further chain) above

B1: ReoPro (c7E3 Fab) (Fab, INN chains, looked up, V domains shown)
VH: EVQLQQSGTVLARPGASVKMSCEASGYTFTNYWMHWVKQRPGQGLEWIGAIYPGNSDTSYIQKFKGKAKLTAVTSTTSVYMELSSLTNEDSAVYYCTLYDGYYVFAYWGQGTLVTVSA
VL: EIVLTQSPVTLSVTPGDSVSLSCRASRDISNNLHWFQQTSHESPRLLIKYASQSMSGIPSRFSGSGSGTDFTLSINSVETEDFGMYFCQQTNSWPYTFGGGTKLEIK
modifications: Fab 125I label
Molecule B1 came in with a Kd in assay [1] of 10 nM. In assay [2], this molecule came in with a Receptors per cell (receptors/cell) of 660000. The molecule further registered a dissociation constant Kd in assay [3] of 0.25 nM. In assay [4], this molecule gave an A375S.2 cell adhesion to fibrin, % of no-antibody control (10 µg/ml) of 12.9%; an A375S.2 cell adhesion to fibrinogen, % of no-antibody control (10 µg/ml) of 6.5%; an A375S.2 cell adhesion to fibronectin, % of no-antibody control (10 µg/ml) of 104%; an A375S.2 cell adhesion to gelatin, % of no-antibody control (10 µg/ml) of 6%. Further, in assay [4], the A375S.2 cell adhesion to type I collagen, % of no-antibody control (10 µg/ml) came out at 93.1%; the A375S.2 cell adhesion to vitronectin, % of no-antibody control (10 µg/ml) was determined as 38.1%; the HUVEC adhesion to fibrin, % of no-antibody control (10 µg/ml) was determined as 35.8%; the HUVEC adhesion to fibrinogen, % of no-antibody control (10 µg/ml) stood at 8.7%. Moreover, in assay [4], the HUVEC adhesion to fibronectin, % of no-antibody control (10 µg/ml) was found to be 96.3%; the HUVEC adhesion to gelatin, % of no-antibody control (10 µg/ml) was found to be 2.5%; the HUVEC adhesion to type I collagen, % of no-antibody control (10 µg/ml) was 99.6%; the HUVEC adhesion to vitronectin, % of no-antibody control (10 µg/ml) stood at 54.9%. For the same molecule, the Kd in assay [5] stood at 22 nM. This molecule also came in with a Receptors per cell (receptors/cell) in assay [6] of 370000.

B2: c7E3 IgG (antibody, INN chains, looked up, V domains shown)
VH: B1 VH
VL: B1 VL
modifications: IgG
Regarding B2, the EC50 in assay [7] amounted to 0.07 µg/mL.
